Laboratory results reported in patent US5968782.

Target: mouse fibrinogen (mouse) (UniProt E9PV24)

fibrinogenolysis assay: time required for thrombin to clot mouse plasma | time required for thrombin to clot mouse plasma (control) | Substance
> 40 s | – | recombinant mMCP-7-FLAG (EK-activated mature mouse mast cell protease 7 with C-terminal FLAG peptide) (enzyme)
– | 15 s | thrombin (enzyme)
